# Assay results taken from US20190367578A1 (Novo Nordisk, published 2019).
# *1 amine or outer side, *2 acyl side, *3 side chain or, on linkers, in order; H or OH if unused. Where no end group is shown, it is not given here. Side-chain parts run from the residue outwards. [ ]: non-standard residue; d: D form. The star is where a group is joined. C18 diacid = O=C(O)CCCCCCCCCCCCCCCCC(=O)*; γGlu = O=C(O)[C@H](CCC(=O)[*:2])N[*:1]; Nle = CCCC[C@H](N)C(=O)O; AEEA = NCCOCCOCC(=O)O; Aib = CC(C)(N)C(=O)O
# T1: human GIP receptor (human) (UniProt P48546)
# T1 sequence (looked up): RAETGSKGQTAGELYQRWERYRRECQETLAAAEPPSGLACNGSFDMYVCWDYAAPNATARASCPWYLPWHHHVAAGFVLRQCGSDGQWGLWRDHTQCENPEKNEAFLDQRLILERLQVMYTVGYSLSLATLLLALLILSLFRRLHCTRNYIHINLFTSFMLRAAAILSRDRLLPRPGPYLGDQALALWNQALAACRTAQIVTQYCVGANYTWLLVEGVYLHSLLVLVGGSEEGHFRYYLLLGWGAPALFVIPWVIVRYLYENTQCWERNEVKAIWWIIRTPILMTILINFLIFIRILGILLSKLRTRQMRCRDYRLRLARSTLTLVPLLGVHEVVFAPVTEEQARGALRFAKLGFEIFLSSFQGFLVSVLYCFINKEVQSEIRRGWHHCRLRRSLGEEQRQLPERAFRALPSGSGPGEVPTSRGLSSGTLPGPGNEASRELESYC
# How the values were obtained:
# Experiment in all cases: cell-based or functional assay
# [1] = biological target: human glucagon receptor (human) (UniProt P47871)
# Sequence of human glucagon receptor (human) (P47871 26-477): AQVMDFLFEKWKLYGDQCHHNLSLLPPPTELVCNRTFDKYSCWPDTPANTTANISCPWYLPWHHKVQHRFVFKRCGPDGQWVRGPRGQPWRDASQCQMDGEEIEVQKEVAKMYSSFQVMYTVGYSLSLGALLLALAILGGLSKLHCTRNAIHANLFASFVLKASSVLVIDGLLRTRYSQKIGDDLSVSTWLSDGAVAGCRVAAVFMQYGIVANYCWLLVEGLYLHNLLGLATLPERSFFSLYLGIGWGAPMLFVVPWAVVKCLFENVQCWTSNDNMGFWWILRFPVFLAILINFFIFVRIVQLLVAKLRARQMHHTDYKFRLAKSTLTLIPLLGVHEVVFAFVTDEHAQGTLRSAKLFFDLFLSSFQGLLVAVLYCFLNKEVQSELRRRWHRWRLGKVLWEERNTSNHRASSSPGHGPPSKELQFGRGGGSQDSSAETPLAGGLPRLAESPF
# [2] = biological target: T1, human GIP receptor (human)
# [3] = biological target: human GLP-1 receptor (human) (UniProt P43220)
# Sequence of human GLP-1 receptor (human) (P43220 24-463): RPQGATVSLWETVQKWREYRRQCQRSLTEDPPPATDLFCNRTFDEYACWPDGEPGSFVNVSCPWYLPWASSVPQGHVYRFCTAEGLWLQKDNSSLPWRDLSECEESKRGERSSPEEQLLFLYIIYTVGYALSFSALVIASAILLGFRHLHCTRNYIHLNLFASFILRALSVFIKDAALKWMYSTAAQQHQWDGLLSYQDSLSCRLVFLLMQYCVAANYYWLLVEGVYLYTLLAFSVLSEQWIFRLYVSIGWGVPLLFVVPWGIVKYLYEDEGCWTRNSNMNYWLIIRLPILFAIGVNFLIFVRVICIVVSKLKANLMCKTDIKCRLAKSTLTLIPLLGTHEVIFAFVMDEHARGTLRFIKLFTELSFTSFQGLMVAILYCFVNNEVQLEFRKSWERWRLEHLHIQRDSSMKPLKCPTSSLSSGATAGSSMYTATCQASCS
# human glucagon receptor = human glucagon receptor (human, UniProt P47871 26-477)
# Sequence of human glucagon receptor (P47871 26-477): as the sequence (P47871 26-477) above
Binder,"EC50 (pM), hGcg-R CRE Luc, 1% HSA (footnote *) [1] [pM]","EC50 (pM), hGIP-R CRE Luc, 0.2% HSA [2] [pM]","EC50 (pM), hGLP-1-R CRE Luc, 1% HSA (footnote *) [3] [pM]","EC50 (pM), hGcg-R CRE Luc, 0.2% HSA [1] [pM]","EC50 (pM), hGLP-1-R CRE Luc, 0.2% HSA [3] [pM]","EC50 (pM), hGcg-R CRE Luc, 0.2% HSA (human glucagon receptor) [pM]"
Y[Aib]EGTFISDYSIA[Nle]DKIRQQDFVK([γGlu-γGlu-γGlu-C18 diacid])WLLAQKGKENDWKHNITQ,> 100000,20.1,> 100000,–,–,–
Y[Aib]EGTFISDYSIA[Nle]DKIHQQDFVK([AEEA-AEEA-γGlu-C18 diacid])WLLAQKGKEEDWKHNITQ,–,5.45,–,> 100000,> 100000,–
Y[Aib]EGTFISDYSIA[Nle]DKIHQQDFVK([AEEA-AEEA-γGlu-C18 diacid])WLLAQKGKEDDWKHNITQ,–,5.97,–,> 100000,> 100000,–
Y[Aib]EGTFISDYSIA[Nle]DKIRQQDFVK([AEEA-AEEA-γGlu-C18 diacid])WLLAQKGKEEDWKHNITQ,–,4.12,–,> 100000,> 100000,–
Y[Aib]EGTFISDYSIA[Nle]DKIHQQDFVK([γGlu-γGlu-γGlu-C18 diacid])WLLAQKGKEEDWKHNITQ,–,9,–,> 100000,> 100000,–
Y[Aib]EGTFISDYSIA[Nle]DKIHQQDFVK([γGlu-γGlu-γGlu-C18 diacid])WLLAQKGKEDDWKHNITQ,–,5.9,–,> 100000,> 100000,–
Y[Aib]EGTFISDYSIA[Nle]DKIRQQDFVK([γGlu-γGlu-γGlu-C18 diacid])WLLAQKGKEEDWKHNITQ,–,4.47,–,> 100000,> 100000,–
Y[Aib]EGTFISDYSIALDKIHQQDFVK([AEEA-AEEA-γGlu-C18 diacid])WLLAQKGKKNDWKHNITQ,> 100000,56,> 100000,–,–,–
H-YAEGTFISDYSIAMDKIHQQDFVNWLLAQKGKKNDWKHNITQ-OH [hGIP(1-42)],–,–,–,–,–,> 100000
